Consider one molecule from patent US20250289871A1.

The target of the experiment is SARS-CoV-2 Delta + T51I + T95I spike protein (authentic virus) (SARS-CoV-2), P0DTC2. In words: cell-based or functional assay.

B1: RQ43-GL-H-LO1 (TM-YTE) (antibody, V domains shown)
VH: EVQLVESGGGLVQPGRSLRLSCAASGFPFDDYAIHWVRLAPGKGLEWVSSISWDSGSIGYADSVKGRFTISRDNAKNSLYLQMNSLRAEDTALYYCAKGAFPGYSSGWYYGLEVWGQGTTVTVSS
VL: QSVVTQPPSASGSLGQSVTISCTGTSSDVGGYNYVSWYQQHPGKAPKLMIFEVSKRPSGVPDRFSGSKSGNTASLTVSGLQAEDEADYYCSSYAGNKGVFGGGTKLTVL
On to B1, for which the Authentic Virus Neutralization IC50 was 0.021 µg/mL.
